Where “and” joins values, the source holds several entries; their conditions need not be identical. Equal entries are not always repeated.
T1: GST-LdPEX3Δ1-42 (L. donovani PEX3 without the N-terminal predicted transmembrane domain, GST-tagged) (Leishmania donovani, UniProt A0A3Q8IW98 43-526)
T1 sequence: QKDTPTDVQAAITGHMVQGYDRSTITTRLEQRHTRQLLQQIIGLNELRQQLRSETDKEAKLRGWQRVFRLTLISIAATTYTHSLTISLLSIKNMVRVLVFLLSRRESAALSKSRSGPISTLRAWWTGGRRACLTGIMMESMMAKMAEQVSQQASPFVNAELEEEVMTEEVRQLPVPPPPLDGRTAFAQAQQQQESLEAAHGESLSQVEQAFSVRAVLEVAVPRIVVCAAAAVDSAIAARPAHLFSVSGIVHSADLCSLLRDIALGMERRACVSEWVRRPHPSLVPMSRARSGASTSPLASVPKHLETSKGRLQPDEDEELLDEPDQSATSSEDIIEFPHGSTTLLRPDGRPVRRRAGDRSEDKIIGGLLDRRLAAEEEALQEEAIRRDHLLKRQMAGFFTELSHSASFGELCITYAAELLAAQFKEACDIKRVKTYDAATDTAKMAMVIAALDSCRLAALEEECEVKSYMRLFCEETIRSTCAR

B1: LdPEX19-His6 (C-terminally His6-tagged full-length L. donovani PEX19, pET21b) (natural protein)
chain: MSDDDLDALLDEAMDMVDEQERKHEEEVRVRDAKLEDDLQKALDEASGTAGGDADMMKMLMSMLGGDSADDASLDSFKKSVMTMVSSLEGEENLGEEDKANLLRVKELMRVMEEEDIDKANDLLEQMKQEGKLPDCNNVGDAEIDEASRRCMEMLQQLSSATQVGHLDPAATPGAASSSSAAPPAAPAGDGAEIPSEVGRATEAMASALISTLADPQFVEPIKLMRDSYGPYMDAHGSELSHEDCERYERQRAKAQEICDLLQNPISGAEDPRLIQLLELMNKYSELGDPPRNLVKYAPKNRKGVEECQ

How the values were obtained:
[1] = target: GST-LdPEX3Δ1-42 (L. donovani PEX3 without the N-terminal predicted transmembrane domain, GST-tagged) (Leishmania donovani); test: AlphaScreen or HTRF
[2] = target: T1, GST-LdPEX3Δ1-42 (L. donovani PEX3 …); test: ELISA
[3] = target: T1, GST-LdPEX3Δ1-42 (L. donovani PEX3 …); test: AlphaScreen or HTRF

Molecule	Kd [1]	Kd [2]	Kd [3]
Tag-free LdPEX19 (from LdPEX19-T-His6 by thrombin cleavage) (natural protein)	11.9 nM	–	–
B1	–	10.6 nM and 10.5 nM	10.4 ± 2.57 nM
